Experimental data taken from the nanobody polyreactivity screen of Harvey et al. (2022).

Assay: yeast display, Sf9 membrane polyspecificity reagent, FACS + sequencing; frameworks hold sequencing errors
Method in brief: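 Polyreactivity labels are assigned by the sorting gate from which each nanobody was recovered. The gates were low and high (top ~1%), set on anti-HA fluorescence for expression and streptavidin fluorescence for reagent binding. Before sorting, galactose-induced (36–48 hours) yeast display cells were stained for 1 hour at 4 °C with 10% biotinylated, detergent-solubilized Sf9 membrane reagent.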

## QVQLVESGGGLVQAGGSLRLSCAASGFTFSSNAMGWYRQAPGKERELVAAIRGSDGNTYYADSVKGRFTISRDNAKNTVYLQMNSLKPEDTAVYYCNARSYGYRTSRARYNYWGQGTQVTVSS
  polyreactivity (PSR sort gate): high polyreactivity

## QVQLVESGGGLVQAGGSLRLSCAASGFTFSSNVMGWYRQAPGKERELVAAISTSGDGSTYYADSVKGRFTISRDNAKNTVYLQMNSLIPEDTAVYYCAAEYPDEDGVYEYDSWGQGTQVTVSS
  polyreactivity (PSR sort gate): low polyreactivity

## QVQLVESGGGLVQAGGSLRLSCAASGFTFSSYAMGWYRQAPGKERELVAAISRSGGSTYYADSVKGRFTISRDNAKNTVYVQMNSLKPEDTAVYYCAARFFARHYYWGQGTQVTVSS
  polyreactivity (PSR sort gate): high polyreactivity

## QVQLVESGGGLVQAGGSLRLSCAASGFTFSSYAMGWYRQAPGKERELVAAITRSGGNTYYADSVKGRFTISRDYAKNTVYLQMNSLKPEDTAVYDCAAPGKGISPSHYYWGQGTQVTVSS
  polyreactivity (PSR sort gate): high polyreactivity

## QVQLVESGGGLVQAGGSLRLSCAASGFTFSSYAMGWYRQAPGKERELVAAITTRGGTFYADSVKGRFTISRDNAKNTVYLQMNSLKPEDTAVYYCAARRVSGRGYWGQGTQVTVSS
  polyreactivity (PSR sort gate): high polyreactivity

## QVQLVESGGGLVQAGGSLRLSCAASGFTFSTNAMGWYRQAPGKERELVAAISWSGSSTYYADSVKGRFTISRDNAKNTVYLQMNSLKPEDTAVYYCAKSRGQADPTYDYWGQGTQVTVSS
  polyreactivity (PSR sort gate): low polyreactivity

## QVQLVESGGGLVQAGGSLRLSCAASGFTFSTYAMGWYRQAPGKERELVAAISFSGGSTYYADSVKGRFTISRDNAKNTVYLQMNSLKPEDTAVYYCNAVFGYRLPGNYWGQGTQVTVSS
  polyreactivity (PSR sort gate): low polyreactivity

## QVQLVESGGGLVQAGGSLRLSCAASGFTFSTYAMGWYRQAPGKERELVAAITRSGGSTYYADSVKGRFTISRDNAKNTVYLQMNSLKPEDTAVYYCATDASFYDPDLYPYGYDYWGQGTQVTVSS
  polyreactivity (PSR sort gate): high polyreactivity

## QVQLVESGGGLVQAGGSLRLSCAASGFTFSVNAMVWYRQAPGKERELVAAISSRGSITYYADSVKGRFTISRDNAKNTVYLQMNSLKPEDTAVYYCAAKPLTGSSWEDYYWGQGTQVTVSS
  polyreactivity (PSR sort gate): high polyreactivity

## QVQLVESGGGLVQAGGSLRLSCAASGFTFSVYAMGWYRQAPGKERELVATITDSGSTNYADSVKGRFTISRDNAKNTVYLQMNSLKPEDTAVYYCNADFRRYVTYHYYRAVIHHDYWGQGTQVTVSS
  polyreactivity (PSR sort gate): high polyreactivity

## QVQLVESGGGLVQAGGSLRLSCAASGFTFSWYAMGCYRQAPGKVRELVAAITSRGGITYYADSVKGRFTISRDNAKNTVYLQMNSLKPEDTAVYYCNAYSQRYGYYYWGQGTQVTVSS
  polyreactivity (PSR sort gate): high polyreactivity

## QVQLVESGGGLVQAGGSLRLSCAASGFTFSWYPMGWYRQAPGKERELVAAITSGGGTNYADSVKGRFTISRDNAKNTVYLQMNSLIPEDTAVYYCAARGRWFYYLDDYWGQGTQVTVSS
  polyreactivity (PSR sort gate): low polyreactivity

## QVQLVESGGGLVQAGGSLRLSCAASGFTFSWYTMGWYRQAPGKERELVAAITSGGSTNYADSVKGRFTISRDNAKNTVYLQMNSLKPEDTAVYYCNAYWSYSISGYDYWGQGTQVTVSS
  polyreactivity (PSR sort gate): low polyreactivity

## QVQLVESGGGLVQAGGSLRLSCAASGFTFSYNSMGRYRQATGKERELVARISRTGGSTNYADSVKGRFTISRDNAKNTVYLQMNSLKPEDTAVYYCGTGYRYTYGSWGQGTQVTVSS
  polyreactivity (PSR sort gate): high polyreactivity

## QVQLVESGGGLVQAGGSLRLSCAASGFTFSYYAMGWYRQAPGKERELVAAISGSGGSTYYADSVKGRFTISRDNAKNTVYLQMNSLKPEDTAVYYCNARWRTRGHPEMYHWGQGTQVTVSS
  polyreactivity (PSR sort gate): high polyreactivity

## QVQLVESGGGLVQAGGSLRLSCAASGFTFSYYAMGWYRQAPGKERELVAAISSGGSTYYADSVKGRFTISRDNAKNTVYLQMHRLKPEDTAVYYCNVLNYSSRHYLFSYDYWGQGTQVTVSS
  polyreactivity (PSR sort gate): high polyreactivity

## QVQLVESGGGLVQAGGSLRLSCAASGFTFSYYAMGWYRQAPGKERELVAAISWSGGSTYYADSVKGRFTISRDNAKNTVYLQMNSLKPEDTAVYYCARVLTRPGRLDYWGQGTQVTVSS
  polyreactivity (PSR sort gate): high polyreactivity
